The nature of this series: yeast display, Sf9 membrane polyspecificity reagent, FACS + sequencing; frameworks hold sequencing errors. Summed up: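 Galactose induction of a Saccharomyces cerevisiae BJ5465 synthetic nanobody display library ran 36–48 hours. The cells were then stained for 1 hour at 4 °C with 10% biotinylated, detergent-solubilized Sf9 membrane reagent, pulled down on streptavidin microbeads and FACS-sorted into low and high (top ~1%) gates on expression and reagent-binding fluorescence. Labels for polyreactivity follow the gate of origin.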
As to “QVKLVESGAGLVQAGGSLRLSCAASALSFYYYAMGWYRQAPGKERELVASITGGDSTNYADSVKGRFTISRDNAKNTVYLQMNSLKPEETAVYYCADEFYVSSYGYRTYDYYYWGQGTQVTVSS”, the “polyreactivity (PSR sort gate)” value was “low polyreactivity”.

Consider “QVKLVESGAGVVQAGGSLRLSCAACGRIFLKYAMGWYRQAPGKERELVAAITSGGGRTSYADSVKGRFTISRDNAKNTVYLQMNSLKPEDTAVYYCNAPAYWRYILRGSAYDYWGQGTQVTVSS”, for which the “polyreactivity (PSR sort gate)” value is “high polyreactivity”.

Consider “QVKLVESGGGFLQAGGRLRLSCAASGIIFYYYAMGRYRQAPGKERELVAAISSGGSTYYSDSVKGRFTISRDNAMNTVYLQMNSLKPEDTAVYYCAADPLYTIDIEYSTYGDYDYWGQGTQVTVSS”, for which the “polyreactivity (PSR sort gate)” value is “low polyreactivity”.

As to “QVKLVESGGGLVQAGGSLRISSAASGSTFYYYAMGWYRQAPGKESEFVASISSRGTSKYYADSVKGRFTISRDNAKNTVYLQMNSLKPEDTAVYYCAARGWCPTRAYDYWGQGTQVTVSS”, the “polyreactivity (PSR sort gate)” value is on record as “high polyreactivity”.

Consider “QVKLVESGGGLVQAGGSLRLSCAASGFIFAHYAMGWYRQAPGKERELVAAIRGGDGSTDYADSVKGRFTISRDNAKNTVYLQMNSLIPEDTAVYYCAKRGKRSRGVGGNYWGQGTQVTVSS”, for which the “polyreactivity (PSR sort gate)” value is “low polyreactivity”.

For the sequence “QVKLVESGGGLVQAGGSLRLSCAASGFILGYYAMGWYRQAPGKERELVASISRRGGSTYYADSVKGRFTISRDNAKNTVYLQMNSLKPEDTAVYYCAASGYGRYPPYEYWGQGTQVTVSS”, the “polyreactivity (PSR sort gate)” value is on record as “high polyreactivity”.

With “QVKLVESGGGLVQAGGSLRLSCAASGFTFNGYGMGWYRQAPGKERELVAAISRSSGGTYYADSVKGRFTISRDNAKNTVYLQMNSLKPVDTAVYYCAATGYRTATPSWRYYYWGQGSQVTVSS”, the “polyreactivity (PSR sort gate)” value is “high polyreactivity”.

Turning to “QVKLVESGGGLVQAGGSLRLSCAASGFTFSRNTRGWYRQAPGKERELVAAIDSTGGSTYYADSEKGRFTISRDNAKNTVYLQMNCLNPEDTAVYYCATVLPDGRVRLRILWGKRVWYDYWGQGTHVTVSS”, the “polyreactivity (PSR sort gate)” value is reported as “low polyreactivity”.

As for “QVKLVESGGGLVQAGGSLRLSCAASGFTIQRYAMGWYRQAPGKERELVAAITSGGSTYYADSVKGRFTISRDNAKNTVYLQMNSLKPEDTAVYYCATRAVWSSWGRRYDSWGQGTQVTVSS”, the “polyreactivity (PSR sort gate)” value is reported as “high polyreactivity”.

As to “QVKLVESGGGLVQAGGSLRLSCAASGITFGYNAMGWDRQAPGKERELVAAITGGSTYYADSVKGRFTISRDNAKNTFYLQMNSLKPEDSAVYYCATDPRRFWVIYYYWGQGTQVTVSS”, the “polyreactivity (PSR sort gate)” value is “low polyreactivity”.

For “QVKLVESGGGLVQAGGSLRLSCAASGLIFGYNTMGWYRQAPGKERELVAAITRSGGSTYYADSVKGRFTISRDNAKNTVYLQMNSLKPEDTAVYYCAARHRSAYYHLDYWGQGTQVTVSS”, the “polyreactivity (PSR sort gate)” value was “high polyreactivity”.

As for “QVKLVESGGGLVQAGGSLRLSCAASGRIFGYYDMGLYRQAPGKDRELVAAISWNGGSTSYADSVKGRFTISRDNAKNTVYLQMNSLKPEDTAVYYCAAETQYDGYVGSFYYWGQGTQVTVSS”, the “polyreactivity (PSR sort gate)” value is on record as “low polyreactivity”.

Turning to “QVKLVESGGGLVQAGGSLRLSCAASGRIFYYNAMGWYRQAPGKERELVSAIRVRGGSTYYADSVKGRFTISRDNAKNTVYLQMNSLNPEDTAVYYCNSSDYKISATNAVVRYYYWGQGTQVTVSS”, the “polyreactivity (PSR sort gate)” value was “high polyreactivity”.

In the case of “QVKLVESGGGLVQAGGSLRLSCAASGRTFASNAMGWYRQAPGKERELVADISSSGGTTYYADSVKGRFTISRDNAKNTVYLQMNSLKPEDTAVYYCAAVSSQDDPVKAWDYEYWGQGTQVTVSS”, the “polyreactivity (PSR sort gate)” value was “low polyreactivity”.

For “QVKLVESGGGLVQAGGSLRLSCAASGRTFLRYTMGWYRQAPGKEREFVAAISYDTSSTNYADSVKGRFTISRDNAKNNLYLQMNSLKPEDTAVYYCATGPYYGYDEFDYWGQGTQVTVSS”, the “polyreactivity (PSR sort gate)” value is “low polyreactivity”.

Regarding “QVKLVESGGGLVQAGGSLRLSCAASGRTFYRNTMGWYRQAPGKERELVAAITRSGGSTYYADSVKGRFTISRDNAKNTVYLQMNRLKPEDTAVYYCARPKIHGETRSYGYGYWGQGTQVTVSS”, the “polyreactivity (PSR sort gate)” value is “high polyreactivity”.

Take “QVKLVESGGGLVQAGGSLRLSCAASGSIFRYYAMGWYRQAPGKERELVAAMTASGGRTHYADSVKGRFTISRDNAKNTVYLQMNSLKLEDTAVYYCAADLYYAWYWKQHYDYCGQGTQVTVSS”: the “polyreactivity (PSR sort gate)” value is listed as “high polyreactivity”.

For “QVKLVESGGGLVQAGGSLRLSCAASGSIFTYYAMGWYRQAPGKERELVADIRWSGGSTYYADSVKGRFTISRDNAKNTVYLQMNSLKPEDTAVYYCNARYYSYWPIYNFDYWGQGTQVTVSS”, the “polyreactivity (PSR sort gate)” value was “low polyreactivity”.

On to “QVKLVESGGGLVQAGGSLRLSCAASGSIFYYYAMGWYREAPGKERELVAAISYGGGSTYYADSVKGRFTISRDNAKNTVYLQMNSLKPEDTAVYYCAVQEVVGWYLYDYWGHGTQVTVSS”, for which the “polyreactivity (PSR sort gate)” value is listed as “high polyreactivity”.

With “QVKLVESGGGLVQAGGSLRLSCAASGSIISGYAMGWYRQAPGKERELVAAISSSGGRTYYADSVKGRFTISRDNAKNTVYLQMYSLKPEDTAVYYCATVWSIVRGSYYNRYDYWGQGTQVTVSS”, the “polyreactivity (PSR sort gate)” value was “high polyreactivity”.

As to “QVKLVESGGGLVQAGGSLRLSCAASGSTFSPYVKAWYRQAPGKERELVAAIRYRGGSTYYADSVKGRFTISRDNAKNTVYLQMNSLKPEDTAVYYCATKRSHYSGGYWGQGTQVTVSS”, the “polyreactivity (PSR sort gate)” value is reported as “high polyreactivity”.

For “QVKLVESGGGLVQAGGSLRLSCAAYGFIISYYAMGWYRQQPGKEREFVAVISRGGNTYYADSVKGRFTISRDNAKNTVYLQMNSLKPVDTAVYYCAASVPPYYPRQRHDGYDYWVQGTQVTVSS”, the “polyreactivity (PSR sort gate)” value is “low polyreactivity”.

As to “QVKLVESGGGLVQAGGSLRLSCAAYGLIMGRYAMGWYRQEPGKERELVAAISGSGGSTYYADSVKGRFTISRDNAKNTVYLQMNSLKPEDTAVYYCAADRLRYRDMYYWGQGTQVTVSS”, the “polyreactivity (PSR sort gate)” value is listed as “low polyreactivity”.

For “QVKLVESGGGLVQAGGSLRLSCGASGSTFGAYAMGWYRQAPGKERELVAVINSDGSTNYADSVKGRFTISRDNAKNTVYLQMNSMKPEDTAVYYCAKERTSRGGVPRMNYWGQGTQVTVSS”, the “polyreactivity (PSR sort gate)” value is reported as “low polyreactivity”.

On to “QVKLVESGGGLVQAGGSLRLSCSASGFTFRFYAMGWYIQAPGKERELVASITRSGGSTYYADSVKGRFTISRDNAKNTVYLQMNSLKPEDTAVYYCAAYRCYVSYKEMYYLGQGTQVTVSS”, for which the “polyreactivity (PSR sort gate)” value was “high polyreactivity”.

As to “QVKLVESGGGLVQAGGSLRLSFAAYGSIFAWYGMGWYRQAPGKERELVAAISTAGSTNYADSVKGRFTISRDNAKNTVYLQMNSLKPEDTAVYYCAKKSSWYYQERFDYWGQGTQVTASS”, the “polyreactivity (PSR sort gate)” value is given as “low polyreactivity”.

Consider “QVKLVESGGGLVQAGGSLRLSFDASGSTFYFYAMGLYRQDPGKETEFFAAITQSGGSTNYADSVKGRFTISRDKAKNTVYLQMNSLKPEDTAVYYCSAREWRSFDYWGQGTQVTVSS”, for which the “polyreactivity (PSR sort gate)” value was “low polyreactivity”.

On to “QVKLVESGGGLVQAGGSLRLSSAASGSTFEYNAMGWYRQAPGKERELVASSTNYADSVKGRFTISRDNAKNTVYLQMTSRKPEDTAVYYCAREQGVNRNHDYWGQGTQVTVSS”, for which the “polyreactivity (PSR sort gate)” value was “low polyreactivity”.

For “QVKLVESGGGLVQAGGSLSLSCDASGFISVQNALGCYRQAPGKERELVASITSDGSTYYADSVKGRFTISRDNAKNTVYLQMTSLKPEDTAVYDCAKVNNSYSGFTTTLEYWGQGTQVTVSS”, the “polyreactivity (PSR sort gate)” value is listed as “low polyreactivity”.

With “QVKLVESGGGLVQEGGSLRLSCAASGRICGNYSMGWYRQAPGKERELVAAIDLSGDSTYYADSVKGRFTISRDNAKNTVYLQMNSLKPEDTAVYYCAATDWFSEYYWGQGTQVTVSS”, the “polyreactivity (PSR sort gate)” value is reported as “low polyreactivity”.

“QVKLVESGRGLVQAGGSLRLSCAASGITFISNAMAVYRQAPGKERELVAAISYRGGSTYYADSVKGRFTISRDNAKNTVYLQMNSLKPEDTAVYDCAARFHYPGGPRYYYWGQGTQVTVSS”: the “polyreactivity (PSR sort gate)” value is “high polyreactivity”.

Take “QVKLVESGVGLVQAGGSLRLSCGASGFIFVRYAIVWSRQAPGKERDLVAAISGSGGRTYYAYSVKGRFTISRDNAKNTVYLKMNSLKPEDTSVYYCNVKSYTYGYLPYDYWGQGTQVTVSS”: the “polyreactivity (PSR sort gate)” value was “high polyreactivity”.

Regarding “QVKLVESVGGLVQAGGRLRLSCAASGSILYFNAMGWYRQAPGKERELVAAISKSGGRTYYADSVKGRFTISRDNAKNTVYLQMNCLKPEDTAVYYCAKDNYWGQGTQVTVSS”, the “polyreactivity (PSR sort gate)” value was “high polyreactivity”.

“QVKLVESWRGLVPAGVSLRLSCAASVNILDYYAMGWYRQAPGNERELVASITSGGGTYYADSVKGRFTISRDNAKNTVYLQMNSLKPEDTAVYYCNAGPKRTYSPPWRVRYYDWGQGTQVTVSS”: the “polyreactivity (PSR sort gate)” value is listed as “high polyreactivity”.

For “QVKLVVSGGGLVQAGGSLRLTCAASGRTFRRNAMGWYRQAPGKERELVAAISTSGGRTYYADSVKGRFTISRDNAKNTVYLQMNSLKAEDTAVYYCAADIPQTEGYWGQGTQVTVSS”, the “polyreactivity (PSR sort gate)” value is on record as “low polyreactivity”.

As for “QVKQQESGGGLVKAGGSLRLSCAASGNISNHNDMGRYRQAPGKEREFVAGITAGGITNYADRVKGRCTISRDNAKNTVYLQMNCLKPEETAVYYCAAYADYAKSYGYWGQGTQATVSS”, the “polyreactivity (PSR sort gate)” value is “low polyreactivity”.

With “QVKRVESGGGLVQAGGSLRFSCADSGFTFGTYAMGWYRQAPGKEREFVAAISSNGGNTYYADSVKGRFTISRDNAKNTVYLEIHSLKPEDTAVSYCADRYPSGTRKWYCYWGQGTQVTVSS”, the “polyreactivity (PSR sort gate)” value was “high polyreactivity”.

Consider “QVLLEDSGGGLVQAGARLRLICAASGRIHVNAMGWYRQAPGKERELVASINIGDGTHYADSVKGRFTISRANAKNTVYLQLNSLISEVTAVYYCAADSRSSNACYDYWGQGTQVSVSS”, for which the “polyreactivity (PSR sort gate)” value was “low polyreactivity”.

On to “QVLLQESGGGLVQAGGSLRLCCAASGYISGDQFMGWYRQAPGKEREFVAGIGNGTNTNYADSVKGRFTTSRDNAKNTVYLQMNSLKPEDTAVYYCAADPSDGSTLAYWGQGTQVTVSS”, for which the “polyreactivity (PSR sort gate)” value is listed as “high polyreactivity”.

For “QVLLQESGGGLVQAGGSLRLGCAASGTISPAYYMGRYHQAPGKEREFVAAITYGTNTYYADSEKGRFTISRDNAKNTVYLQMNSLKPEDTAVYYCSATAGYNGAHDYWGQVTQVTVSS”, the “polyreactivity (PSR sort gate)” value is listed as “low polyreactivity”.

Regarding “QVLLQESGGGLVQAGGSLRLGCAASGTISPAYYMGRYHQAPGKEREFVAAITYGTNTYYADSVKGRFTISRDNAKNSVYLQMNSLKPEDTAVYYCSATAGYNGAHDYWGQGTQVTVSS”, the “polyreactivity (PSR sort gate)” value is “low polyreactivity”.
